Assays:
[1] = Transition midpoint (Tm) of dAbs, thermal stability (DSC); type: physicochemical
Description: “Transition midpoint” or “Tm” is the temperature where 50% of the single variable domain is in its native conformation and the other 50% is denatured. In an embodiment, the single variable domain has a high Tm. In particular the Tm is greater than or equal to about 66° C. The thermal stability of a single variable domain, including the Tm, may be determined using Differential Scanning calorimetry (DSC).
For these Examples, high Tm dAb™ refers to a dAb™ with a Tm of 66° C., and low Tm dAb™ refers to a dAb™ with a Tm of 56° C.

[2] = Recovery of DOM101 from gut tissue and plasma after intra-duodenal administration, TNFR1-specific MSD assay; type: in vivo, Han Wistar rats
Description: Han Wistar rats were dosed with 1 mg DOM101 in the presence or absence of 100 mg CM, to determine if CM preserved the dAb™ in the gastrointestinal tract. Rats were briefly anaesthetised by isoflurane anaesthetic and a midline abdominal incision made to facilitate location of the duodenum for direct intra-duodenal injection (500 μl) of the dose formulations. Following dosing, the abdominal incisions were closed and the rats allowed to recover prior to their return to study cages. Direct dosing into the duodenum bypassed the acidic conditions of the gastric juices in the stomach and allowed for direct analysis of pharmacokinetics in the intestinal tract.
Animals were culled at the following time-points: 0.5, 1.5, 3, 5, 7 and 18 hours (three animals per group).
Blood samples were taken and the intestinal tract dissected out and divided into its constituent parts: duodenum (×2), jejunum (×6), ileum, caecum, colon (×2), rectum.
(§1) Intestinal samples were homogenised using the GentleMACS™ Dissociator in lysis buffer containing detergent and protease inhibitors. Samples were screened for DOM101 using a TNFR1-specific MSD™ assay. In brief, MSD plates were coated with TNFR1-Fc. Plates were washed and blocked with bovine serum albumin. Tissue samples were diluted and added to the plate, along with a standard curve of dAb™, then incubated at room temperature to allow binding. Plates were washed and a sulfo-tag-conjugated anti-Vh antibody was added to the wells. After incubation, the plate was washed and incubated with MSD read buffer. The resulting electrochemiluminescence signal was read on a Sector Imager 6000.
Results are expressed as nanograms per gram of tissue in FIG. 6.

[3] = Recovery of DOM101 from the large intestine after intra-colonic administration; type: in vivo, Han Wistar rats; conditions: 1 mg DOM101 intra-colonic
Description: as §1
Han Wistar rats were dosed with 1 mg DOM101 in the presence or absence of CM, to determine if camostat mesylate also preserved the dAb™ in the large intestinal tract. In brief, rats were anaesthetised by isoflurane anaesthetic, a midline abdominal incision made to facilitate location of the colon and 500 ul dose of the dose formulations injected directly into the colon. Following dosing, the abdominal incisions were loosely closed and the rats maintained under isoflurane anaesthesia and monitored for the duration of the experiment. […]
Samples were homogenised and screened as stated in Example 4. Results are expressed as nanograms per gram of tissue in FIG. 7.

[4] = 1 mg DOM101 intra-duodenal, absence of CM

B1: DOM7: domain antibody (single variable domain), Vh framework, SEQ ID NO: 5 (protein)
VHH: EVQLLESGGGLVQPGGSLRLSCAASGSTFTDDRMWWVRQAPGKGLEWVSAIQPDGHTTYYADSVKGRFTISRDNSKNTLYLQMNSLRAEDTAVYYCAEQDVKGSSSFDYWGQGTLVTVSS
modifications: Amino acid sequence identified using molecular biology techniques.
- Tm (° C.) [1]: 50.6 °C

B2: DOM101: TNFR1 specific dAb, SEQ ID NO: 6 (protein)
VHH: EVQLLESGGGLVQPGGSLRLSCAASGFTFAHETMVWVRQAPGKGLEWVSHIPPDGQDPFYADSVKGRFTISRDNSKNTLYLQMNSLRAEDTAVYHCALLPKRGPWFDYWGQGTLVTVSS
modifications: Amino acid sequence identified using molecular biology techniques.
- amount of dAb detectable in the ileum (in words) [2, 4]: small amounts
- time at which dAb was detectable in the duodenum [2, 4]: 0.5 h
- time up to which dAb was detectable in the jejunum [2, 4]: up to 1.5 h
- time after dosing at which dAb was detectable throughout the GI tract ([2]; 1 mg DOM101 intra-duodenal, presence of 100 mg CM): 7 h
- level in plasma ([2]; after intra-duodenal dosing, data not shown): less than 0.1 % of the total dose
- dAb levels at 3 h in the absence of CM compared with the two CM groups (in words) ([3]; absence of CM, particularly caecum and rectum): substantially reduced
- dAb levels in caecum, colon and rectum at 0.5 h (in words) ([3]; presence or absence of CM, rectum except 10 mg camostat group): High levels

B3: DOM3: domain antibody (single variable domain), Vh framework, SEQ ID NO: 3 (protein)
VHH: EVQLLESGGGLVQPGGSLRLSCAASGFTFAHETMVWVRQAPGKGLEWVSHIPPDGQDPFYADSVKGRFTISRDNSKNTLYLQMNSLRAEDTAVYHCALLPKRGPWFDYWGQGTLVTVSS
modifications: Amino acid sequence identified using molecular biology techniques.
- Tm (° C.) [1]: 65 °C

B4: DOM6: domain antibody (single variable domain), Vh framework, SEQ ID NO: 4 (protein)
VHH: EVQLLESGGGLVQPGGSLRLSCAASGFTFSEGTMWWVRQAPGKGLEWVSAILAAGSNTYYADSVKGRFTISRDNSKNTLYLQMNSLRAEDTAVYYCAKKRQERDGFDYWGQGTLVTVSS
modifications: Amino acid sequence identified using molecular biology techniques.
- Tm (° C.) [1]: 55.8 °C

B5: DOM1: domain antibody (single variable domain), Vκ framework, SEQ ID NO: 1 (antibody, V domains shown)
VL: DIQMTQSPSSLSASVGDRVTITCRASQDIYLNLDWYQQKPGKAPKLLINFGSELQSGVPSRFSGSGYGTDFTLTISSLQPEDFATYYCQPSFYFPYTFGQGTKVEIKR
modifications: Amino acid sequence identified using molecular biology techniques.
- Tm (° C.) [1]: 55 °C

B6: DOM2: domain antibody (single variable domain), Vh framework, SEQ ID NO: 2 (protein)
VHH: EVQLLESGGGLVQPGGSLRLSCAASGFTFRNFGMGWVRQAPGKGLEWVSWIISSGTETYYADSVKGRFTISRDNSKNTLYLQMNSLRAEDTAVYYCAKSLGRFDYWGQGTLVTVSS
modifications: Amino acid sequence identified using molecular biology techniques.
- Tm (° C.) [1]: 55.9 °C
